Measured values as given in patent publication US6379894 (NOVIMAUNE S A, dated 1999).

Target: T1, purified and recombinant USF1 protein (UniProt P22415 1-310, limits assumed)
T1 construct: also called USF1 recombinant factor; USF1 recombinant proteins
Experiment: EMSA with recombinant proteins on radiolabelled NGE DNA probe, PhosphoImager
From the text: We then analysed whether STAT1 and USF1 proteins formed the U complex co-operatively after induction by interferon γ. […] Further, adding increasing quantities of activated STAT1 to a given quantity of USF1 in the presence of an excess of free NGE probe encouraged the formation of STAT1/USF1 complexes rather than binding of USF1 alone.

T1 sequence (P22415 whole entry): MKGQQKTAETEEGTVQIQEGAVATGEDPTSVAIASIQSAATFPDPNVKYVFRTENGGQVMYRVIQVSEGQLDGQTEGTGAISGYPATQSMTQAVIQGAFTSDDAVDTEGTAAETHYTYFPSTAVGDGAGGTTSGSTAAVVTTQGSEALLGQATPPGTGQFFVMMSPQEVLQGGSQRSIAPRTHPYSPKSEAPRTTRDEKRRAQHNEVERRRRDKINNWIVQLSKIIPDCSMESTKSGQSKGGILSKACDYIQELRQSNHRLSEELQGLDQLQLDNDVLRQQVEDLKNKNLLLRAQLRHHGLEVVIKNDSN

probe bound to the complex, as fold of the sum of probe bound to USF1 alone and STAT1 alone: ~2 fold
B1: purified and activated recombinant STAT1 protein (other, UniProt P42224 1-750, looked up)
chain: MSQWYELQQLDSKFLEQVHQLYDDSFPMEIRQYLAQWLEKQDWEHAANDVSFATIRFHDLLSQLDDQYSRFSLENNFLLQHNIRKSKRNLQDNFQEDPIQMSMIIYSCLKEERKILENAQRFNQAQSGNIQSTVMLDKQKELDSKVRNVKDKVMCIEHEIKSLEDLQDEYDFKCKTLQNREHETNGVAKSDQKQEQLLLKKMYLMLDNKRKEVVHKIIELLNVTELTQNALINDELVEWKRRQQSACIGGPPNACLDQLQNWFTIVAESLQQVRQQLKKLEELEQKYTYEHDPITKNKQVLWDRTFSLFQQLIQSSFVVERQPCMPTHPQRPLVLKTGVQFTVKLRLLVKLQELNYNLKVKVLFDKDVNERNTVKGFRKFNILGTHTKVMNMEESTNGSLAAEFRHLQLKEQKNAGTRTNEGPLIVTEELHSLSFETQLCQPGLVIDLETTSLPVVVISNVSQLPSGWASILWYNMLVAEPRNLSFFLTPPCARWAQLSEVLSWQFSSVTKRGLNVDQLNMLGEKLLGPNASPDGLIPWTRFCKENINDKNFPFWLWIESILELIKKHLLPLWNDGCIMGFISKERERALLKDQQPGTFLLRFSESSREGAITFTWVERSQNGGEPDFHAVEPYTKKELSAVTFPDIIRNYKVMAAENIPENPLKYLYPNIDKDHAFGKYYSRPKEAPEPMELDGPKGTGYIKTELISVSEVHPSRLQTTDNLLPMSPEEFDEVSRIVGSVEFDSMMNTV
modifications: activated form (phosphorylated); the residue numbers are not given
notes: also called STAT1 factor
